Test results from patent US20120225075A1 (LABRYS BIOLOGICS, published 2012).
Changes are numbered by the printed parent chain. Values belong to the binder of their own block, whether it stands above or below them.

Assays:
[1] = target: T1, N-LC-biotinylated human α-CGRP (human (the filing says that cynomolgus …, N-LC-biotinylated)); test: SPR (Biacore 3000), Fab over N-biotin-CGRP captured on SA chip, 25 °C
T1 construct: Captured on a streptavidin sensor chip; also called α-human/cyno; α-human
T1 peptide: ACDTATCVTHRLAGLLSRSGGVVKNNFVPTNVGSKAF
Procedure: (§1) Interaction analysis was conducted at 25° C. and at 37° C. on a Biacore 3000™ system equipped with streptavidin-coated (SA) sensor chips (Biacore AB, Uppsala, Sweden) using standard Biacore running buffers (HBS-P or HBS-EP). N-LC-biotinylated human and rat α- and β-CGRPs were captured on individual flow cells at low levels (typically 100 response units) to provide the reaction surfaces, while an unmodified flow cell served as a reference channel. Purified Fab fragments of antibodies G1 and G2 were generated. Typically, Fabs were prepared as a two-fold serial dilution using 0.5 μM as the top concentration and injected for 1-min at 100 μl/min allowing up to two hours for the dissociation time. Surfaces were regenerated with a mixture of 50% v/v ethanol+25 mM NaOH for G1 Fab and 2:1 v/v Pierce Gentle Elution Buffer/4M NaCl for G2 Fab. […] The binding responses were double-referenced and fit globally to a simple model using BiaEvaluation v. 4.0 software. Affinities were deduced from the quotient of the kinetic rate constants (KD=koff/kₒₙ).

[2] = target: T2, N-LC-biotinylated rat α-CGRP (rat, N-LC-biotinylated); test: as above
T2 construct: Captured on a streptavidin sensor chip; also called α-rat
T2 peptide: T1 peptide with A1S, D3N, N25D, K35E
Procedure: as §1

[3] = target: T1, N-LC-biotinylated human α-CGRP; test: SPR (Biacore 3000), Fab over N-biotin-CGRP captured on SA chip, 37 °C
Procedure: as §1

[4] = target: T3, N-LC-biotinylated human β-CGRP (human (the filing says that cynomolgus …, N-LC-biotinylated)); test: as above
T3 construct: Captured on a streptavidin sensor chip; also called β-human/cyno; β-human
T3 peptide: T1 peptide with D3N, V22M, N25S
Procedure: as §1

[5] = target: T2, N-LC-biotinylated rat α-CGRP; test: as above
Procedure: as §1

[6] = target: T4, N-LC-biotinylated rat β-CGRP (rat, N-LC-biotinylated (in the assay with CGRP on the chip)); test: as above
T4 construct: Captured on a streptavidin sensor chip for G1; also called β-rat
T4 peptide: T1 peptide with A1S, D3N, N25D
Procedure: as §1

[7] = target: T4, N-LC-biotinylated rat β-CGRP; test: SPR (Biacore 3000), Fab over N-biotin-CGRP captured on SA chip, 37 °C; 37 C; upper bound, 20-min dissociation
Procedure: as §1
The dissociation of G1 Fab from α-human, β-human, and […] occurs very slowly. As such, the offrate (koff) cannot be measured accurately unless the dissociation phase is monitored for a very long time. As a general rule-of-thumb, the binding response decays at least 5% over the allowed dissociation time for the report of an accurate offrate. […]

[8] = target: T1, N-LC-biotinylated human α-CGRP; test: SPR (Biacore 3000), side-by-side on the same chip at 37 °C, 20-min dissociation time; 37 C; side-by-side on the same chip; 20-min dissociation
Procedure: as §1
The results for antibody G1 are expressed in Table 1 below. […] Human and cynomolgus monkey have identical sequences; therefore, the human data also apply to cynomolgus.

[9] = target: T1, N-LC-biotinylated human α-CGRP; test: SPR (Biacore 3000), side-by-side on the same chip, 20-min dissociation time, 37 °C; 37 C; side-by-side on the same chip; 20-min dissociation; rounded figure for three CGRPs
Procedure: as §1
(§2) The dissociation of G1 Fab from α-human, β-human, and […] occurs very slowly. As such, the offrate (koff) cannot be measured accurately unless the dissociation phase is monitored for a very long time. As a general rule-of-thumb, the binding response decays at least 5% over the allowed dissociation time for the report of an accurate offrate. However, monitoring long dissociation times on the Biacore is hindered by baseline drift, which is particularly challenging when working at the low surface capacities required for kinetic analyses. […] As a result, the offrates for β-CGRPs cannot be resolved as accurately as those for α-CGRPs.

[10] = target: T3, N-LC-biotinylated human β-CGRP; test: as above
Procedure: as §1, §2

[11] = target: T4, N-LC-biotinylated rat β-CGRP; test: as above
Procedure: as §1, §2

[12] = target: T5, 125I-human α-CGRP (human, 125I label (position not given)); test: competition radioligand binding: 125I-human α-CGRP on SK-N-MC cell membranes (CGRP1-receptor), 25 °C; IC50 given as binding sites (IgG value multiplied by 2); 25 C; radioligand competition on SK-N-MC membranes; whole IgG, IC50 said to be converted to binding sites
T5 peptide: T1 peptide
Procedure: A binding assay was performed to measure the IC₅₀ of anti-CGRP G1 antibody in blocking human α-CGRP from binding to the CGRP1-receptor. Membranes (25 μg) from SK-N-MC cells were incubated for 90 minutes at 25° C. in incubation buffer (50 mM Tris-HCl, pH 7.4, 5 mM MgCl₂, 0.1% BSA) containing […] ¹²⁵I-human α-CGRP and varying concentrations of anti-CGRP antibody (0.015 nM-33 nM) in a total volume of 1 ml. Incubation was terminated by filtration through a glass microfiber filter (GF/B, 1 μm) which had been blocked with 0.5% polyethylenimine. The protein-bound radioactivity was determined in a gamma counter.

[13] = target: T1, N-LC-biotinylated human α-CGRP; test: SPR (Biacore 3000), Fab over N-biotin CGRP captured on SA chip, 25 °C
Procedure: as §1

[14] = target: T3, N-LC-biotinylated human β-CGRP; test: as above
Procedure: as §1

[15] = target: T2, N-LC-biotinylated rat α-CGRP; test: as above
Procedure: as §1

[16] = target: T1, N-LC-biotinylated human α-CGRP; test: SPR (Biacore 3000), Fab over N-biotin CGRP captured on SA chip, 37 °C
Procedure: as §1

[17] = target: T2, N-LC-biotinylated rat α-CGRP; test: as above
Procedure: as §1

[18] = target: T4, N-LC-biotinylated rat β-CGRP; test: SPR, reverse orientation assay format (data not shown)

T1/2 [1]: 24.7 h
koff [1]: 7.8e-06 s⁻¹
kon [1]: 186000 M⁻¹ s⁻¹
T1/2 [2]: 3.12 h
koff [2]: 6.18e-05 s⁻¹
kon [2]: 50800 M⁻¹ s⁻¹
T1/2 [3]: 5.3 h
koff [3]: 3.63e-05 s⁻¹
kon [3]: 587000 M⁻¹ s⁻¹
Kd [4]: < 0.155 nM
T1/2 [4]: 2.76 h
koff [4]: < 6.98e-05 s⁻¹
kon [4]: 451000 M⁻¹ s⁻¹
T1/2 [5]: 28.8 min
koff [5]: 0.000399 s⁻¹
kon [5]: 155000 M⁻¹ s⁻¹
Kd [6]: < 0.152 nM
T1/2 [6]: 2.45 h
koff [6]: < 7.85e-05 s⁻¹
kon [6]: 516000 M⁻¹ s⁻¹
Kd [7]: < 0.15 nM
Kd [8]: 0.163 nM
Kd [9]: ~0.15 nM
Kd [10]: ~0.15 nM
Kd [11]: ~0.15 nM
B1: Fab fragment of antibody G1 (Fab, V domains shown)
VH: EVQLVESGGGLVQPGGSLRLSCAASGFTFSNYWISWVRQAPGKGLEWVAEIRSESDASATHYAEAVKGRFTISRDNAKNSLYLQMNSLRAEDTAVYYCLAYFDYGLAIQNYWGQGTLVTVSS
VL: EIVLTQSPATLSLSPGERATLSCKASKRVTTYVSWYQQKPGQAPRLLIYGASNRYLGIPARFSGSGSGTDFTLTISSLEPEDFAVYYCSQSYNYPYTFGQGTKLEIK
notes: also called G1 Fab; G1 antibody

IC50 [12]: 1.8 nM
B2: anti-CGRP G1 antibody (whole IgG) (antibody, V domains shown)
VH: B1 VH
VL: EIVLTQSPATLSLSPGERATLSCKASKRVTTYVSWYQQKPGQAPRLLIYGASNRYLGIPARFSGSGSGTDFTLTISSLEPEDFAVYYCSQSYNYPYTFGQGTKLEIKR
notes: also called antibody G1; anti-CGRP antibody

Kd [13]: 19.1 nM
T1/2 [13]: 10.1 min
koff [13]: 0.00115 s⁻¹
kon [13]: 60300 M⁻¹ s⁻¹
Kd [14]: 19.9 nM
T1/2 [14]: 7.13 min
koff [14]: 0.00162 s⁻¹
kon [14]: 81400 M⁻¹ s⁻¹
Kd [15]: 0.9 nM
T1/2 [15]: 54 min
koff [15]: 0.000214 s⁻¹
kon [15]: 231000 M⁻¹ s⁻¹
Kd [16]: 41.9 nM
T1/2 [16]: 2.96 min
koff [16]: 0.0039 s⁻¹
kon [16]: 93000 M⁻¹ s⁻¹
Kd [17]: 3.4 nM
T1/2 [17]: 6.8 min
koff [17]: 0.0017 s⁻¹
kon [17]: 500000 M⁻¹ s⁻¹
B3: Fab fragment of antibody G2 (Fab, V domains shown)
VH: EVQLQQSGPELVKPGASVKMSCKASGYTFTSSVMHWVKQKPGQGLEWIGYINPYNDGTKYNEKFKGKATLTSDKSSSTAYMELSSLTSEDSAVYYCAKGGNDGYWGQGTTLTVSS
VL: EIVLTQSPTTMAASPGEKITITCSASSSISSIYLHWYQQKPGFSPKVLIYRASNLASGVPARFSGSGSGTSYSLTIGTMEAEDVATYYCQQGSTIPFTFGSGTKLEIKR
notes: also called G2 Fab; G2 antibody

binding result [18]: binds
B4: antibody G2 (form in the reverse orientation assay not stated) (antibody, V domains shown)
VH: B3 VH
VL: EIVLTQSPTTMAASPGEKITITCSASSSISSIYLHWYQQKPGFSPKVLIYRASNLASGVPARFSGSGSGTSYSLTIGTMEAEDVATYYCQQGSTIPFTFGSGTKLEIK
notes: Anti-rat CGRP mouse monoclonal antibody
